Data from article PMC9927002 (Frontiers in Immunology, 2023).

Columns and labels:
Details in all cases: one partner purified
[1] = target: T1, full-length N protein of SARS-CoV (SARS-CoV, NC_004718.3 (Tor2), UniProt P59595); assay: ELISA
T1 construct: also called SARS-CoV N; source: 293T cells, transfected (pcDNA3.1), in culture supernatant; not shown: D7-tag, C-terminal, kept

[2] = target: T2, full-length N protein of HKU1 (HCoV-HKU1 isolate N1, NC_006577.2, UniProt Q5MQC6); assay: ELISA
T2 construct: also called HKU1 N; source: 293T cells, transfected (pcDNA3.1), in culture supernatant; not shown: D7-tag, C-terminal, kept

[3] = target: T3, full-length SARS-CoV-2 nucleocapsid (N) protein (SARS-CoV-2, NC_045512.2 (Wuhan-Hu-1), UniProt P0DTC9); assay: BLI
T3 construct: also called SARS-CoV-2 N protein; SARS-CoV-2 N/D7-Tag; not shown: D7-tag, C-terminal, kept

Binder | binding result [1] | binding result [2] | Kd [3] [nM] | koff [3] [s⁻¹] | kon [3] [M⁻¹ s⁻¹]
3B7 (antibody, V domains shown, also called 3B7 hmAb) VH: QMQLVQSGAEVKKPGASVRVSCKVSGYSLTELPMHWVRQAPGKGLEWVGSFDPQDAETTYAQRFQGRVAMTEDTSTDTAYMELSSLRSEDTAVYYCATPAPTIVGVVIYALHIWGQGTMVTVSS VL: EIVLTQSPGTLSLSPGERATLSCRASQRVSDNSLAWYQQKPGQAPSLLIFAASIRAPGIPDRISGTGSGTDFTLTINRLEPEDFVVYFCLQYTTSPPLTFGGGTKLEIK | binds | no binding (tested: 10 µg/ml) | 1.94 | 0.000689 | 355000
N83 (antibody, V domains shown, also called N83 hmAb) VH: QVQLQESGPRLVKSSETLSLTCTVSGGSISSGSYYWNWIRQPAGKGLEWIGRVYISGVTSYNPSLKSRVTISLDISKNQFSLQLTSVTAADSAVYYCARGGMAVGAPLYYYFYGMDVWGQGTTVTVSS VL: DVVMTQSPLSLPVTPGEPASISCRSSQSLLHSNGYNYVDWYLQKPGQSPQLMIYLGSNRASGVPDRFSGSGSGTHFTLKISRVEAEDVGVYYCMQALQTLSITFGQGTRLEIK | binds | no binding (tested: 10 µg/ml) | 1.76 | 0.00113 | 639000
N31 (antibody, V domains shown, also called N31 hmAb) VH: QMQLVQSGAEVKKPGSSVKVSCKASGGTFSSYGISWVRQAPGQGLEWMGGIIPILGTANYAQRFQGRIALTADESTSTAYMEVSSLRSEDTAVYYCARGMWSNPPGYCCSYMDVWGKGTTVTVSS VL: EIVLTQSPATLSVSPGERVTLACRASQSLRSKLAWYQQKPGQAPRLLIYDASTRATGFPARFSGSGSGTEFTLTISSLQSEDFAVYYCQQYSNWPRTFGQGTKLEIK | binds | no binding (tested: 10 µg/ml) | < 0.001 | < 1e-07 | 174000
N5 (antibody, V domains shown, also called N5 hmAb) VH: QVQLVQSGAEVKKPGSSVKVSCKASGGTFSSYAIGWVRQAPGQGLEWMGAIIPIFGTTIFAQKFQGRVTITADESTTTAYMELSSLRSDDTAVYYCARGGGGVERGVILTRWFDPWGQGTLVTVSS VL: QSVLTQPPSVSAAPGQKVTLSCSGSSSNIGNNHVSWYQQLPGTAPKLLIYDNNKRPSGIPDRFSGSKSGTSATLGITGLQTGDEADYYCGTWDNSLSAGVFGGGTKLTVV | binds | no binding (tested: 10 µg/ml) | < 0.001 | < 1e-07 | 137000
N3 (antibody, V domains shown, also called N3 hmAb) VH: QMQLVQSGAEVKRPGSSVKVSCKASGGTFSVYAISWVRQAPGQGLEWMGGIIPIFGTANYAQKFQGRVTLTADESTSTAYMELSSLSSEDTAVYYCARGGYCSGANCPKWGEWSHSYNYMDVWGKGTTVTVSS VL: not shown | binds | no binding (tested: 10 µg/ml) | < 0.001 | < 1e-07 | 157000
